Experimental data reported in article PMC10449495.

What was measured:
[1] = biological target: IpaB (invasion plasmid antigen B), affinity tag-free recombinant; test: assembly with LPS, anion-exchange purification of the complex, SDS-PAGE gel densitometry; S. sonnei LPS, 1x (0.56 w LPS/w protein); 8 uM IpaC + 1 uM IpaB in 5.1 M urea, 37 C 2 h; Q Sepharose HP, eluted at 50% Buffer B; %Band ratio
[2] = biological target: IpaB (invasion plasmid antigen B), affinity tag-free recombinant; test: assembly with LPS, anion-exchange purification of the complex, SDS-PAGE gel densitometry; S. sonnei LPS, 2x (1.12 w LPS/w protein); 8 uM IpaC + 1 uM IpaB in 5.1 M urea, 37 C 2 h; Q Sepharose HP, eluted at 50% Buffer B; %Band ratio
[3] = biological target: IpaB (invasion plasmid antigen B), affinity tag-free recombinant; test: assembly with LPS, anion-exchange purification of the complex, SDS-PAGE gel densitometry; S. sonnei LPS, 4x (2.24 w LPS/w protein); 8 uM IpaC + 1 uM IpaB in 5.1 M urea, 37 C 2 h; Q Sepharose HP, eluted at 50% Buffer B; %Band ratio
[4] = biological target: IpaB (invasion plasmid antigen B), affinity tag-free recombinant; test: assembly with LPS, anion-exchange purification of the complex, SDS-PAGE gel densitometry; S. sonnei LPS, 8x (4.48 w LPS/w protein); 8 uM IpaC + 1 uM IpaB in 5.1 M urea, 37 C 2 h; Q Sepharose HP, eluted at 50% Buffer B; %Band ratio
[5] = biological target: IpaB (invasion plasmid antigen B), affinity tag-free recombinant; test: assembly with LPS, anion-exchange purification of the complex, SDS-PAGE gel densitometry; S. flexneri 6 LPS, 1x (0.56 w LPS/w protein); 8 uM IpaC + 1 uM IpaB in 5.1 M urea, 37 C 2 h; Q Sepharose HP, eluted at 50% Buffer B; %Band ratio
[6] = biological target: IpaB (invasion plasmid antigen B), affinity tag-free recombinant; test: assembly with LPS, anion-exchange purification of the complex, SDS-PAGE gel densitometry; S. flexneri 6 LPS, 2x (1.12 w LPS/w protein); 8 uM IpaC + 1 uM IpaB in 5.1 M urea, 37 C 2 h; Q Sepharose HP, eluted at 50% Buffer B; %Band ratio
[7] = biological target: IpaB (invasion plasmid antigen B), affinity tag-free recombinant; test: assembly with LPS, anion-exchange purification of the complex, SDS-PAGE gel densitometry; S. flexneri 6 LPS, 4x (2.24 w LPS/w protein); 8 uM IpaC + 1 uM IpaB in 5.1 M urea, 37 C 2 h; Q Sepharose HP, eluted at 50% Buffer B; %Band ratio
[8] = biological target: IpaB (invasion plasmid antigen B), affinity tag-free recombinant; test: assembly with LPS, anion-exchange purification of the complex, SDS-PAGE gel densitometry; S. flexneri 6 LPS, 8x (4.48 w LPS/w protein); 8 uM IpaC + 1 uM IpaB in 5.1 M urea, 37 C 2 h; Q Sepharose HP, eluted at 50% Buffer B; %Band ratio
[9] = biological target: IpaB (invasion plasmid antigen B), affinity tag-free recombinant; test: assembly with LPS, anion-exchange purification of the complex, SDS-PAGE gel densitometry; S. flexneri 2a LPS, 2x (1.12 w LPS/w protein); 8 uM IpaC + 1 uM IpaB in 5.1 M urea, 37 C 2 h; Q Sepharose HP, eluted at 50% Buffer B; %Band ratio
[10] = biological target: IpaB (invasion plasmid antigen B), affinity tag-free recombinant; test: assembly with LPS, anion-exchange purification of the complex, SDS-PAGE gel densitometry; S. flexneri 2a LPS, 4x (2.24 w LPS/w protein); 8 uM IpaC + 1 uM IpaB in 5.1 M urea, 37 C 2 h; Q Sepharose HP, eluted at 50% Buffer B; %Band ratio
[11] = biological target: IpaB (invasion plasmid antigen B), affinity tag-free recombinant; test: assembly with LPS, anion-exchange purification of the complex, SDS-PAGE gel densitometry; S. flexneri 2a LPS, 8x (4.48 w LPS/w protein); 8 uM IpaC + 1 uM IpaB in 5.1 M urea, 37 C 2 h; Q Sepharose HP, eluted at 50% Buffer B; %Band ratio
[12] = biological target: IpaB (invasion plasmid antigen B), affinity tag-free recombinant; test: assembly with LPS, anion-exchange purification of the complex, SDS-PAGE gel densitometry; S. flexneri 3a LPS, 1x (0.56 w LPS/w protein); 8 uM IpaC + 1 uM IpaB in 5.1 M urea, 37 C 2 h; Q Sepharose HP, eluted at 50% Buffer B; %Band ratio
[13] = biological target: IpaB (invasion plasmid antigen B), affinity tag-free recombinant; test: assembly with LPS, anion-exchange purification of the complex, SDS-PAGE gel densitometry; S. flexneri 3a LPS, 2x (1.12 w LPS/w protein); 8 uM IpaC + 1 uM IpaB in 5.1 M urea, 37 C 2 h; Q Sepharose HP, eluted at 50% Buffer B; %Band ratio
[14] = biological target: IpaB (invasion plasmid antigen B), affinity tag-free recombinant; test: assembly with LPS, anion-exchange purification of the complex, SDS-PAGE gel densitometry; S. flexneri 3a LPS, 4x (2.24 w LPS/w protein); 8 uM IpaC + 1 uM IpaB in 5.1 M urea, 37 C 2 h; Q Sepharose HP, eluted at 50% Buffer B; %Band ratio
[15] = biological target: IpaB (invasion plasmid antigen B), affinity tag-free recombinant; test: assembly with LPS, anion-exchange purification of the complex, SDS-PAGE gel densitometry; S. flexneri 3a LPS, 8x (4.48 w LPS/w protein); 8 uM IpaC + 1 uM IpaB in 5.1 M urea, 37 C 2 h; Q Sepharose HP, eluted at 50% Buffer B; %Band ratio
[16] = biological target: IpaB (invasion plasmid antigen B), affinity tag-free recombinant; test: assembly with LPS, anion-exchange purification of the complex, SDS-PAGE gel densitometry; S. flexneri 2a LPS, 1x (0.56 w LPS/w protein); 8 uM IpaC + 1 uM IpaB in 5.1 M urea, 37 C 2 h; Q Sepharose HP, eluted at 50% Buffer B; %Band of full-size IpaC divided by %Band of full-size IpaB

B1: IpaC (invasion plasmid antigen C), affinity tag-free recombinant (natural protein)
chain: MEIQNTKPTQTLYTDISTKQTQSSSETQKSQNYQQIAAHIPLNVGKNPVLTTTLNDDQLLKLSEQVQHDSEIIARLTDKKMKDLSEMSHTLTPENTLDISSLSSNAVSLIISVAVLLSALRTAETKLGSQLSLIAFDATKSAAENIVRQGLAALSSSITGAVTQVGITGIGAKKTHSGISDQKGALRKNLATAQSLEKELAGSKLGLNKQIDTNITSPQTNSSTKFLGKNKLAPDNISLSTEHKTSLSSPDISLQDKIDTQRRTYELNTLSAQQKQNIGRATMETSAVAGNISTSGGRYASALEEEEQLISQASSKQAEEASQVSKEASQATNQLIQKLLNIIDSINQSKNSAASQIAGNIRA
[1]
  IpaC:IpaB ratio in the complex with LPS (gel densitometry): 2.6 IpaC:IpaB
[2]
  IpaC:IpaB ratio in the complex with LPS (gel densitometry): 5.6 IpaC:IpaB
[3]
  IpaC:IpaB ratio in the complex with LPS (gel densitometry): 9.4 IpaC:IpaB
[4]
  IpaC:IpaB ratio in the complex with LPS (gel densitometry): 7.2 IpaC:IpaB
[5]
  IpaC:IpaB ratio in the complex with LPS (gel densitometry): 2.1 IpaC:IpaB
[6]
  IpaC:IpaB ratio in the complex with LPS (gel densitometry): 4.1 IpaC:IpaB
[7]
  IpaC:IpaB ratio in the complex with LPS (gel densitometry): 4 IpaC:IpaB
[8]
  IpaC:IpaB ratio in the complex with LPS (gel densitometry): 3.9 IpaC:IpaB
[9]
  IpaC:IpaB ratio in the complex with LPS (gel densitometry): 6.9 IpaC:IpaB
[10]
  IpaC:IpaB ratio in the complex with LPS (gel densitometry): 7.8 IpaC:IpaB
[11]
  IpaC:IpaB ratio in the complex with LPS (gel densitometry): 9.4 IpaC:IpaB
[12]
  IpaC:IpaB ratio in the complex with LPS (gel densitometry): 2.5 IpaC:IpaB
[13]
  IpaC:IpaB ratio in the complex with LPS (gel densitometry): 3.8 IpaC:IpaB
[14]
  IpaC:IpaB ratio in the complex with LPS (gel densitometry): 5.8 IpaC:IpaB
[15]
  IpaC:IpaB ratio in the complex with LPS (gel densitometry): 5.8 IpaC:IpaB
[16]
  IpaC:IpaB ratio in the complex with LPS (gel densitometry): 3.8 IpaC:IpaB
